Measurements published in article PMC7911445.
Where two headings read alike, the source gives them in different places.

For “β-catenin: 1-mM LiCl (GSK3β inhibitor) added to TMA/BL-treated cultures”, the localisation_or_trafficking (phosphorylation at S33) was “increases” and the localisation_or_trafficking (phosphorylation at S37) was “increases”.
